This series has as its target His-ΔPACC (Neurospora crassa) (UniProt Q7RVQ8). The series is described as follows: EMSA. The conditions noted are these: EMSA: 25 mM HEPES-KOH pH 7.9, 20 mM KCl, 10% glycerol, 1 mM DTT, 0.2 mM EDTA, 0.5 mM PMSF, 12.5 mM benzamidine, 5 µg/mL antipain and pepstatin A, 2 µg …. In general terms: Mobility shift assays separate free from complexed probe on a gel.

Here are results for 2 sequences from article PMC3432076.

His-ΔPACC (Neurospora crassa), sequence (Q7RVQ8 1-213, stated change not applied): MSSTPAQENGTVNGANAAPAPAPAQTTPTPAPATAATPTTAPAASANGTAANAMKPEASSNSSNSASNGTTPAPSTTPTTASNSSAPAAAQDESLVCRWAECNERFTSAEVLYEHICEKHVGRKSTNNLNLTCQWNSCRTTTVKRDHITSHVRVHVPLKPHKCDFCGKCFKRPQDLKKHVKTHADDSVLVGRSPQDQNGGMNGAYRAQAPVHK

Take “GACCCAACAGCCCAACTTGTGCTTGTCTTGTTCTTTTCCGGCCTCGCTAGAGGTACTATTTCTTCGCTTCTTGTCTGACTTTTTTCAATAGCCGTCTTTGGGCCAGCTTGGCCGTGAGATCGGGGCCGCATGGGAGTATTCGTTGC (double strand) [pacC probe (146 bp gsn promoter)]”: the binding result is “binds”.

Turning to “GACCCAACAGCCCAACTTGTGCTTGTCTTGTTCTTTTCCGGCCTCGCTAGAGGTACTATTTCTTCGCTTCTTGTCTGACTTTTTTCAATAGCCGTCTTTGGGCCAGAAATTACGTGAGATCGGGGCCGCATGGGAGTATTCGTTGC (double strand) [mpacC probe (CTTGGC to AAATTA)]”, the binding result is recorded as “binds more weakly”.
